As usually defined, the Kd is the free concentration of one partner at which half of the binding sites on the other are occupied at equilibrium, for simple one-to-one binding. A lower Kd goes with higher affinity.

Common to all, as to test: fluorescence polarization
The target in series [1] is T1, DmBicc1 N-term (Drosophila melanogaster, UniProt Q24009 1-506).
T1 sequence: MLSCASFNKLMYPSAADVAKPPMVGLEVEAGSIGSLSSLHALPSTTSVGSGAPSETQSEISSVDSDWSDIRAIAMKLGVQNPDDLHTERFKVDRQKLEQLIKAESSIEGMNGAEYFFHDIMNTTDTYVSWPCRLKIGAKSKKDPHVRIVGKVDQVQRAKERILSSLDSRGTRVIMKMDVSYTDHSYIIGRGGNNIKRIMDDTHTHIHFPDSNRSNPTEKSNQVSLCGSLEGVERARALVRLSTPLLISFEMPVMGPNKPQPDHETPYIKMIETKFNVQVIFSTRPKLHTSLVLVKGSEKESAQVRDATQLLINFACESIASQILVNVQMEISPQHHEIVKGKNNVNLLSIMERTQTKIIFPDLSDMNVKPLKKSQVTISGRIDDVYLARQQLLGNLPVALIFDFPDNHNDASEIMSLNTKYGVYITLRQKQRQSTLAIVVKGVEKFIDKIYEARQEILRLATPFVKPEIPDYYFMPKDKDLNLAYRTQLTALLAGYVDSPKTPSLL

Series [2] has as its target T2, HsBicc1 N-term (human, UniProt Q9H694 1-506).
Series [3] has as its target T3, XlKH1-DmBicc1KH2-KH3 (Xenopus laevis / Drosophila …, UniProt A0A1L8FE49 1-134+Q24009:179-506, internal_change).
The target of series [4] is T4, XlBicc1 N-term (KH1-KH3) (Xenopus laevis, UniProt A0A1L8FE49 1-506).
Series [5] concerns the target T4, XlBicc1 N-term (KH1-KH3). This is another data set of the same source.
For series [6], the target named is T4, XlBicc1 N-term (KH1-KH3). This is another data set of the same source.
In series [7] the target is T1, DmBicc1 N-term. The source holds these as a separate data set.
Series [8] concerns the target T2, HsBicc1 N-term. This is another data set of the same source.
Series [9] deals with T3, XlKH1-DmBicc1KH2-KH3. This is another data set of the same source.
In series [10] the target is T2, HsBicc1 N-term. This is another data set of the same source.

Like-named read-outs stand apart in the source and are kept apart here.

T2 sequence (Q9H694 1-506): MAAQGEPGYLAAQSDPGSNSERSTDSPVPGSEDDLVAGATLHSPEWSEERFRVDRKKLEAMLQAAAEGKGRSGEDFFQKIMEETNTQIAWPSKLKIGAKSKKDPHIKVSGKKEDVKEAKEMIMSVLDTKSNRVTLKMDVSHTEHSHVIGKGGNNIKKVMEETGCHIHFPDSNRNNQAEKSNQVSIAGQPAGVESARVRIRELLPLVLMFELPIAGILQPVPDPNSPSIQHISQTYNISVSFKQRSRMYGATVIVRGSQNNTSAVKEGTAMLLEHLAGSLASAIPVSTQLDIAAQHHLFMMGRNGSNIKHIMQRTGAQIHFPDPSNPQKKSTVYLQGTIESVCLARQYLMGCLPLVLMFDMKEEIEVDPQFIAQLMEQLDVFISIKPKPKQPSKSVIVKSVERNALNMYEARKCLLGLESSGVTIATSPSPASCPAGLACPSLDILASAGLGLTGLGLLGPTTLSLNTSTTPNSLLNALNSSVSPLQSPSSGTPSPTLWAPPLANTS

With CUUAUUAGACACGUUGUCGCGAAACAGCUCC (structured_RNA) [Cripto-1 loop variant], the binding signal is 3.2 fold reduction vs wild-type RNA with DmBicc1 N-term [1] and 15 fold reduction vs wild-type RNA with HsBicc1 N-term [2]. Further, the binding result with XlKH1-DmBicc1KH2-KH3 [3] is “no binding”. In addition, the Kd in the series with XlBicc1 N-term (KH1-KH3) [4] was about 12000 nM.

With CGACUCUAGAAGGACUACGUGGCAUUCCAAUU (ssRNA) [Cyclin B1 negative control RNA], the binding result with XlBicc1 N-term (KH1-KH3) [5] is “no binding”.

As for CGACUCUAGAAGGUUGUACAUUAACAGCUCC (structured_RNA) [Cripto-1 leader variant], the binding result in the series with XlBicc1 N-term (KH1-KH3) [6], with DmBicc1 N-term [7] and with HsBicc1 N-term [8] was “no binding” each time.

On to CUUAUUAGACACGUUGUACAUUAACAGCUCC (structured_RNA) [XlCripto-1 wild-type RNA site], for which the dissociation constant Kd with XlBicc1 N-term (KH1-KH3) [6] is 34 nM; in the series with DmBicc1 N-term [7], 93 nM; with XlKH1-DmBicc1KH2-KH3 [9], 89 nM. In the series with HsBicc1 N-term [10], the binding result was “binds”.
